Test results as given in article PMC9812318, “A dimer between monomers and hexamers—Oligomeric variations in glucosamine-6-phosphate deaminase family” (PLOS ONE, 2023).

Experiments:
[1] = biological target: the molecule itself; assay: crystal structure; HiNagB crystals, P21, 12 monomers in the asymmetric unit, 3.0 Å; 2% Tacsimate pH 5.0, 0.1 M sodium citrate pH 5.6, 16% PEG 3350, 0.1 M strontium chloride, 18°C
[2] = biological target: the molecule itself; assay: crystal structure; PmNagB crystals, P21, 4 monomers in the asymmetric unit, 2.3 Å; 100 mM sodium cacodylate/HCl pH 6.5, 200 mM MgCl2, 20% PEG 1000, 18°C; analysis of crystal packing

B1: Glucosamine-6-phosphate deaminase (NagB) from Haemophilus influenzae (enzyme)
chain: not shown
notes: Glucosamine-6-phosphate deaminase (NagB), Haemophilus influenzae; Made from a Gateway recombinant plasmid; also called HiNagB; Hi-NagB; source: E. coli BL21(DE3)*, purified (Ni-NTA, SEC)
stoichiometry N [1]: 6

B2: Glucosamine-6-phosphate deaminase (NagB) from Pasteurella multocida (enzyme)
chain: not shown
notes: Glucosamine-6-phosphate deaminase (NagB), Pasteurella multocida; Made from a Gateway recombinant plasmid; also called PmNagB; Pm-NagB; source: E. coli BL21(DE3)*, purified (Ni-NTA, SEC)
stoichiometry N [2]: 2
